# Results as given in the DeepSol protein solubility set.
# Experiment: soluble on expression in E. coli; label from the status in PepcDB or PDB records
row,Sequence,soluble on expression in E. coli
1,MKKGSRHNFVVSQENWTLHRKGYQDQRRHQEKVKEAIRKNLPDLVSEENIIMSNGREVIKIPIRSLDEYKIRYNYDKNKHVGQGDGDSQVGDVIARDPSAGQQGPGKGQGAGDQPGEDYFEAEVSILELEELLFRELELPNLQQKEEDHLVVEHIEFNDIRKKGLMGNIDKRRTILSAIKRNALEGRPGLIPIYNDDLRFKTWNEVVRPESKAVVLAMMDTSGSMGRWEKYMARSFFFWMTRFLRTKYETVDIEFIAHHTEAKVVSEEDFFSKGESGGTICSSAYRKALELINEKYDPARYNIYPFHFSDGDNLTSDNARCLKLVHELMESSSMFGYGEVNQYSRHSTLMNAYKNLKDPRFRSYVLKEKGDVYRAMKTFFKKEEEAVSAAALEHHHHHH,soluble
2,MSLKSQNTLWKIRKIWAKFQRYTISYKQEIIGTFNPQAQMILMNHQSALDIIALEELYPKNLCWIAKKELGEIPIFKVAMKKPKLLCIDRKNPRDLVRVLKEAKERISEDRVLAIFPEGTRSKNEKMLKFQSGAKILSEKLNLKVQPILIVDSAKILDTKSFSASSGVLKIICMDLVDTNDEKWLENTRKKMQELLDQERAKLCEGHHHHHH,not soluble
3,MGSDKIHHHHHHMSFFKTPLIGLKADSFRHPLDLEATKTLKQIPGIDMLVRNWLGPMAEQVFYVENIASSILVGEKQLPDLYKLLLDACEILDIEPPQLYVRQHPAPNAYTFAVRGKQPFVVLHTSLIDILTPEEIQAVIAHELGHLKCDHSVYLTPVNLLILAAAIVPNVGTFVAQAIQAQLLEWVRCAEFTCDRAALLATQDPKVVMSVLMKLAGGSPTLAPQLNLDAFVAQARAYDDISKTELGEMVKTARTAQLTHPVPVLRAREIDRWASSTEYQSLIQSHGLKSTSKEVAPKGGWRNW,not soluble
4,MGHHHHHHSHMNIFIMRHGEAEVMANSDKARHLTVYGSKQAFLQGQWLKQHLSTLVINSLDRILVSPYVRAQETFHQVNQAFDLELENKFEIWEGITPYGHAHSVIDYLEVLKDEGVKSVLIVSHLPLVGEIVAELYGKRNPISFYPATIAQLLWDGNKSEILMHQASPVIYLK,not soluble
5,MIAGPLGRASELHRYEGNQTVVFCAGGVGLPPVYPIMREHLRLGNHVTLISGFRAKEFLFWTGDDERVGKLKKEFGDQLSLIYTTNDGSYGVKGFVTGPLEEMMKANQEGKGRSIAEVIAIGPPLMMRAVSDLTKPYGVKTVASLEHHHHHH,not soluble
6,MSKRNTQQRRHNIIADLNAQGEVSVDSLAKQFDTSEVTIRKDLAALETSGLLLRRYGGAVALPSEITEAKVDQLSQQKLHIAKKAAMLIRDHNRIIIDSGQTTSALVSELANKKGLVVMTNALSIANEIHALENEPTLLMTGGTWDATSEAFQGQVAEQVLRSYDFDQLFIGADGIDIKRGTTTFNELIGLSRVMAEVAREVIVMVESAKITKKIPNLELNWQQIHTVITDDGLSEEMRIALTEQGVKLIIAKGLEHHHHHH,soluble
7,MGSDKIHHHHHHMQKHNIKRDCCKLLYLLICNSLFYRRSIMGVKVVKDLVYSYIEIDESVQKLIDTASFQRLKRIKQLSSSYIFPSTNHTRYEHSIGVMHLACNFFEVLEKDFRKYGLTEDRISYLRLHIKLAGLLHDVGHPPFSHLGEKFLDKNEIIACIKNEYSHLVDVDKTFYNNGRLIGKEHELLSCYCILRKFYKILKEEIDKNIDVAFICRCIIGNTYPDSENWDKNICVRIISSDSIDVDKLDYLTRDNHMTGEIAPKMDIKRLLACLTITENKELKYVAKAIPAVQTVVDSRDILYLWVYHHHISIYTDYIIGRILKRCMTLYDEHRGQALEEMNREEYFSPKAITDYLITDDDIYSHLRKIYVLSLEGKVDDFNTIIIKQIFERDFLKPLWKTIYEYKDFEKNLVDKKIIKSYDELEDILKNEKNIEDITNTLLKKLNLKEGEVFIITKYNKFYNSNKEAPISLLLNGEERKLSDLLPQKEFGKFHTMAFFVFVPKKYKKEAKEIVIEELQKISQT,not soluble
8,AKAAGSSIGQQDTLVMLLNFKENPNDQPITSEEAHALVFGEVNDFYQENSYGKTWLSGQVAGWYTLPVSDQVCDYPSVQAEADKMARADGIVLEDYQR,not soluble
9,MATARTARSRRKVRKVRDKWKEKVWYEIYATPEFGGVFIGYTPANDPSLVLGRVAETSLRDLTGDPTKHMHRVYFKIFGVTGNKAIAQYYGHDTTREFMKSQIRRRRSRIDAILDVKTQDGHKIRTKAMVLTAYRANTKQKSDIRKKMEEIIKAMAKEKTFPQYVQAMLFGEMAEKIKNECKKIFPIKNVIIYKSEVLSLAKKEENEGFVKEAEEETAEAQELEHHHHHH,soluble
10,MSHQDDYLSVEELIEIQKEETRDIIQALLEDGSDPDALYEIEHHLFAEDFDKLEKAAVEAFKMGFEVLEAEETEDEDGNKLLCFDATMQSALDAKLIDEQVEKLVNLAEKFDIIYDGWGTYYEGLEHHHHHH,soluble
11,MEKQPNKLIREKSPYLLQHAWNPVDWHPWGEEAFSRARETGRPIFLSSGYSTCHWCHVMEHESFENAETAALLNRHFVPVKLDREEHPDVDHLYMMFVQATTGRGGWPMSVWMTPDLKPFFGGSYFPATERWGMPSFRSVLEHLANLWEHDRPRLLASAGSIMDQLSGLTRP,not soluble
12,MIKNGTLKPGDKLLPVHQLAEQFQVGRSAVREALSALRAMGLIEMKQGEGTYVKNFDSSSLTKSLNNRLLMKKEDILNLLEVRKVLEVGAVRVAAAKRTEDNLQNMKHWLDEMAKSIGDEKAGEKADFQFHMGIAESSHNNILLELMNHVSEMIAETIGESRRIILYGEQTTSERLIEEHQVIYDAVLKQDVELAQQAMLDHLTNVEHIVTGKNDINS,not soluble
13,MKTPQGNTSASRREVDTSMRNRFEFAGSSLRDRIGSILSMDQTPRPATRANIFMGRTPTPARHLPESRRMFVPDYTSTPAPTAPRQEFRFEDLSRIVAPPIEQTFIQLDSDGELTLPAESSIAVSPPPRPSSEPLRHLSQVSLSARPASTEPVRRDVHWRVHPSAKIRKCTVPKTPSFARPTKSWLNRVNRED,not soluble
14,MGSDKIHHHHHHDETDPILTQKNWDGTATYFQSSDEHGFSMYYKPQVGFVGDPMPFYDPVAKDFKVMYLQDYRPNPEATYHPIFGVATKDGATYESLGELISCGGRDEQDAAIGTGGTIYNPADKLYYTFYTGNKFKPSSDQNAQVVMVATSPDFKTWTKNRTFYLKGDTYGYDKNDFRDPFLFQTEDGVYHMLIATRKNGKGHIAEFTSADLKEWESAGTFMTMMWDRFYECPDVFKMGDWWYLIYSEQASFMRKVQYFKGRTLEDLKATTANDAGIWPDNREGMLDSRAFYAGKTASDGTNRYIWGWCPTRAGNDNGNVGDVEPEWAGNLVAQRLIQHEDGTLTLGVPDAIDRKYTSAQEVKVMAKDGNMIESGKTYTLGEGASVIFNRLKVHNKISFTVKTASNTDRFGISFVRGTDSASWYSIHVNADEGKANFEKDGDDAKYLFDNKFNIPADNEYRVTIYSDQSVCVTYINDQLSFTNRIYQMQKNPWSLCCYKGEITVSDVQVSTY,not soluble
15,TSGTLYLVPTPIGNLQDMTFRAVATLKEVDFICAEDTRNTGLLLKHFDIATKQISFHEHNAYEKIPDLIDLLISGRSLAQVSDAGMPSISDPGHDLVKAAIDSDIAVVALPGA,not soluble
16,MARDRNLFKMLVNRLLDRLARLPVGAELGSEGELAAELQASRTTVRAVLTHLAEAGLLSWEGRRKVVLRAPSPSDRFDEGETRPRQELVEEPFLAWVLQGDLPPGTLLHESDLARRLGVPVATVREFLIRFEPFGLIEKQPNRHWVLKGFTRAFAEEMFAVREMFERHALRGLLAATAPGGPLRADLESLRAEHEALSAGPEEELTAFPALDARFHRLLCRAAHNRFILDFSRTISIIVHFHYRWNKRDELRRNRAALNEHLAIVEAVLAGDAPRAAAALDAHLATAYRTLMTSVTWADA,not soluble
17,MIKFYQYKNCTTCKKAAKFLDEYGVSYEPIDIVQHTPTINEFKTIIANTGVEINKLFNTHGAKYRELDLKNKLQTLSDDEKLELLSSDGMLVKRPLAVMGDKITLGFKEDQYKETWLA,not soluble
18,GMGRILREGAGWRLGWDETAHRYPGLVGTTDWAVELTAAEMADFCRLVQQLAETIAAIAPELMPEERLQIEAESALLWLEAEGFADAYELRLILASDRRVEACWPAAAVPALVAATHTLKGF,soluble
